Laboratory results from PMC11906750.
Like-named read-outs stand apart in the source and are kept apart here.

Legend:
Assay in all cases: FRET or BRET
[1] = target: HC-Pro^Tu-CFP (turnip mosaic virus)
[2] = target: HC-Pro^Tu-K-CFP (turnip mosaic virus)
[3] = target: HC-Pro^Tu-CFP (turnip mosaic virus); remark: listed apart in the source
[4] = target: HC-Pro^Tu-K-CFP (turnip mosaic virus); remark: listed apart in the source

HC-Pro^Tu-CFP (natural protein)
FRET efficiency [1]: 70%

HC-Pro^Tu-K-CFP (natural protein)
FRET efficiency [2]: 72%

B1: YFP-HEN1 (enzyme)
chain: MAGGGKHTPTPKAIIHQKFGAKASYTVEEVHDSSQSGCLGLAIPQKGPCLYRCHLQLPEFSVVSNVFKKKKDSEQSAAELALDKLGIRPQNDDLTVDEARDEIVGRIKYIFSDEFLSAEHPLGAHLRAALRRDGERCGSVPVSVIATVDAKINSRCKIINPSVESDPFLAISYVMKAAAKLADYIVASPHGLRRKNAYPSEIVEALATHVSDSLHSREVAAVYIPCIDEEVVELDTLYISSNRHYLDSIAERLGLKDGNQVMISRMFGKASCGSECRLYSEIPKKYLDNSSDASGTSNEDSSHIVKSRNARASYICGQDIHGDAILASVGYRWKSDDLDYDDVTVNSFYRICCGMSPNGIYKISRQAVIAAQLPFAFTTKSNWRGPLPREILGLFCHQHRLAEPILSSSTAPVKSLSDIFRSHKKLKVSGVDDANENLSRQKEDTPGLGHGFRCEVKIFTKSQDLVLECSPRKFYEKENDAIQNASLKALLWFSKFFADLDVDGEQSCDTDDDQDTKSSSPNVFAAPPILQKEHSSESKNTNVLSAEKRVQSITNGSVVSICYSLSLAVDPEYSSDGESPREDNESNEEMESEYSANCESSVELIESNEEIEFEVGTGSMNPHIESEVTQMTVGEYASFRMTPPDAAEALILAVGSDTVRIRSLLSERPCLNYNILLLGVKGPSEERMEAAFFKPPLSKQRVEYALKHIRESSASTLVDFGCGSGSLLDSLLDYPTSLQTIIGVDISPKGLARAAKMLHVKLNKEACNVKSATLYDGSILEFDSRLHDVDIGTCLEVIEHMEEDQACEFGEKVLSLFHPKLLIVSTPNYEFNTILQRSTPETQEENNSEPQLPKFRNHDHKFEWTREQFNQWASKLGKRHNYSVEFSGVGGSGEVEPGFASQIAIFRREASSVENVAESSMQPYKVIWEWKKEDVEKKKTDL
FRET efficiency [3]: 55%

B2: YFP-ATG8a (natural protein)
chain: MAKSSFKISNPLEARMSESSRIREKYPDRIPVIVEKAGQSDVPDIDKKKYLVPADLTVGQFVYVVRKRIKLGAEKAIFVFVKNTLPPTAALMSAIYEEHKDEDGFLYMTYSGENTFG
FRET efficiency [4]: 30%
FRET efficiency [3]: 30%
